Here are results for five molecules from publication doi:10.1101/852095 (bioRxiv, 2019).

B1: GTF2E2 (natural protein, human, UniProt P29084 1-291, looked up)
chain: MDPSLLRERELFKKRALSTPVVEKRSASSESSSSSSKKKKTKVEHGGSSGSKQNSDHSNGSFNLKALSGSSGYKFGVLAKIVNYMKTRHQRGDTHPLTLDEILDETQHLDIGLKQKQWLMTEALVNNPKIEVIDGKYAFKPKYNVRDKKALLRLLDQHDQRGLGGILLEDIEEALPNSQKAVKALGDQILFVNRPDKKKILFFNDKSCQFSVDEEFQKLWRSVTVDSMDEEKIEEYLKRQGISSMQESGPKKVAPIQRRKKPASQKKRRFKTHNEHLAGVLKDYSDITSSK
B2: MED31 (natural protein, human, UniProt Q9Y3C7 1-131, looked up)
chain: MAAAVAMETDDAGNRLRFQLELEFVQCLANPNYLNFLAQRGYFKDKAFVNYLKYLLYWKDPEYAKYLKYPQCLHMLELLQYEHFRKELVNAQCAKFIDEQQILHWQHYSRKRMRLQQALAEQQQQNNTSGK
B3: MED11 (natural protein, human, UniProt Q9P086 1-117, looked up)
chain: MATYSLANERLRALEDIEREIGAILQNAGTVILELSKEKTNERLLDRQAAAFTASVQHVEAELSAQIRYLTQVATGQPHEGSSYSSRKDCQMALKRVDYARLKLSDVARTCEQMLEN
B4: GTF2A2 (natural protein, human, UniProt P52657 1-109, looked up)
chain: MAYQLYRNTTLGNSLQESLDELIQSQQITPQLALQVLLQFDKAINAALAQRVRNRVNFRGSLNTYRFCDNVWTFVLNDVEFREVTELIKVDKVKIVACDGKNTGSNTTE
B5: TAF9 (natural protein, human, UniProt Q16594 1-264, looked up)
chain: MESGKTASPKSMPKDAQMMAQILKDMGITEYEPRVINQMLEFAFRYVTTILDDAKIYSSHAKKATVDADDVRLAIQCRADQSFTSPPPRDFLLDIARQRNQTPLPLIKPYSGPRLPPDRYCLTAPNYRLKSLQKKASTSAGRITVPRLSVGSVTSRPSTPTLGTPTPQTMSVSTKVGTPMSLTGQRFTVQMPTSQSPAVKASIPATSAVQNVLINPSLIGSKNILITTNMMSSQNTANESSNALKRKREDDDDDDDDDDDYDNL

Sequence of recombinant NPM1 (Nucleophosmin), probe of the protein array (P06748 whole entry): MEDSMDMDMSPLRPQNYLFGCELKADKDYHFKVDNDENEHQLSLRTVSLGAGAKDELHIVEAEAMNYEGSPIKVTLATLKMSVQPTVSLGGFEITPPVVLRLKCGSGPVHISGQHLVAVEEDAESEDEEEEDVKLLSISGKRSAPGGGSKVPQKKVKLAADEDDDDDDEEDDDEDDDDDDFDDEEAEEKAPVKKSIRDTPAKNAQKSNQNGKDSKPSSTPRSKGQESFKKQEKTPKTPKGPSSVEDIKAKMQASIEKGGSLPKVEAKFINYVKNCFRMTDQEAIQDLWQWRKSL

The assay addresses recombinant NPM1 (Nucleophosmin), probe of the protein array (human, UniProt P06748 1-294). The assay can be described thus: peptide or protein array.
As to B1, the binding result was “binds”.

In the case of B2, the binding result is “binds”.

For the molecule B3, the binding result is reported as “binds”.

On to B4, for which the binding result is recorded as “binds”.

For B5, the binding result is recorded as “binds”.
